Article PMC7954794, “Protein context shapes the specificity of SH3 domain-mediated interactions in vivo” (Nature Communications, 2021)

B1: LSB3 (protein)
chain: MGINNPIPRSLKSETKKAAKILASFVKPNQVFGADQVIPPDVLKRAKGLAIITILKAGFLFSGRAGSGVIVARLKDGTWSAPSAIAMAGAGAGGMVGIELTDFVFILNTQDAVKSFSEFGTITLGGNVSVSAGPLGRSAEAAASASAGGVAAVFAYSKSKGLFAGVSVEGSAIIERREANRKFYGDNCTAKMILSGRIRPPPAVDPLFRVLESRAFNYRPSNGGRGSFDDDEDDYYDDDDYYNDIPSSFSSTDASSTRPNTRSTRRRAQSGSRYTFDDDDDDDDYGTGYSRNSRLAPTNSGGSGGKLDDPSGASSYYASHRRSGTAQSRARSSRNRWADDEYDDYDDDYESGYRRGNGRDRTKDREVDDLSNRFSKSRISSASTPQTSQGRFTAPTSPSTSSPKAVALYSFAGEESGDLPFRKGDVITILKKSDSQNDWWTGRVNGREGIFPANYVELV
modifications: left off: DHFR F[3], C-terminal, kept
B2: HSE1 (protein, UniProt P38753 2-452, looked up)
Class E vacuolar …: SSSAIKIRNALLKATDPKLRSDNWQYILDVCDLVKEDPEDNGQEVMSLIEKRLEQQDANVILRTLSLTVSLAENCGSRLRQEISSKNFTSLLYALIESHSVHITLKKAVTDVVKQLSDSFKDDPSLRAMGDLYDKIKRKAPYLVQPNVPEKHNMSTQADNSDDEELQKALKMSLFEYEKQKKLQEQEKESAEVLPQQQQQHQQQNQAPAHKIPAQTVVRRVRALYDLTTNEPDELSFRKGDVITVLEQVYRDWWKGALRGNMGIFPLNYVTPIVEPSKEEIEKEKNKEAIVFSQKTTIDQLHNSLNAASKTGNSNEVLQDPHIGDMYGSVTPLRPQVTRMLGKYAKEKEDMLSLRQVLANAERSYNQLMDRAANAHISPPVPGPALYAGMTHANNTPVMPPQRQSYQSNEYSPYPSNLPIQHPTNSANNTPQYGYDLGYSVVSQPPPGYEQ
B3: FUS1 (protein, UniProt P11710 1-512, looked up)
Nuclear fusion protein FUS1: MVATIMQTTTTVLTTVAAMSTTLASNYISSQASSSTSVTTVTTIATSIRSTPSNLLFSNVAAQPKSSSASTIGLSIGLPIGIFCFGLLILLCYFYLKRNSVSISNPPMSATIPREEEYCRRTNWFSRLFWQSKCEDQNSYSNRDIEKYNDTQWTSGDNMSSKIQYKISKPIIPQHILTPKKTVKNPYAWSGKNISLDPKVNEMEEEKVVDAFLYTKPPNIVHIESSMPSYNDLPSQKTVSSKKTALKTSEKWSYESPLSRWFLRGSTYFKDYGLSKTSLKTPTGAPQLKQMKMLSRISKGYFNESDIMPDERSPILEYNNTPLDANDSVNNLGNTTPDSQITSYRNNNIDLITARPHSVIYGTTAQQTLETNFNDHHDCNKSTEKHELIIPTPSKPLKKRKKRRQSKMYQHLQHLSRSKPLPLTPNSKYNGEASVQLGKTYTVIQDYEPRLTDEIRISLGEKVKILATHTDGWCLVEKCNTQKGSIHVSVDDKRYLNEDRGIVPGDCLQEYD
B4: CYK3 (protein, UniProt Q07533 1-885, looked up)
Cytokinesis protein 3: MATNLTSLKPPFKVKARYGWSGQTKGDLGFLEGDIMEVTRIAGSWFYGKLLRNKKCSGYFPHNFVILLEERLNSSTENGRQPSKIVESFEKSNKVVIPPVPSRYSDERPRPKKKLSSSMPNSPKKPVDSLTKARKAKSKEMVNEKNIYNTQSSRHHNNSAPNLPLASHSKPQVRNFEESMNNPLPPLPPLPDLDNMRKTDKRAPKKSYSANDLHMARSSREYNYYKDNQKFYDGFIPEKRYSLEEDSISSGLFSNSQYLNDSACSSENSFALMSDFSATSAGSFARHKYAQSFSDSLQRSQNANGCSTKINDSQEFGDSNASSRNGKMGDILRKIIIPKRNTNIYSSSVSSPKSPKAYPKLPDIQNLNLSATPDEARDWIAVKCHLNRARTLTKYDKHPRYMRALEENRDLILHPQDSIYNGLNTNEVKGNTKPGLVDVELAELNIEYIDKMTWKRCIRDGTMTLDSWAQTTFSARYSTVLEKLRGIYIFCTEMFALTDDNGTSDFSAEPQNLEKILYRKHCTPYELTWLFKKLANSLGITCEIVIGFLKTPSAINWEFKYNHCWLRILVNKEWRFIDVILGNVTNPIHEFVNNRKIKKAENSYFLMAPLEMIYTHIPPREFEQHIVPSIDQLSALYLPLVFPSFFKNELKLYKFSTALSFLEDSEIYECSLEIPNDVEVFASVVIPTDNEEASSAYRNMELALTQIKKQKAESGRRIALIKAVLPPNVNKGSLYIHSGVRGTQTSIANIHPLSMMVPLTHKGSNMKYEFVIKIPSESIQKIELYIVEPQSRYLFVGNEYSFEVIQSPSDGIVYSSDEGPNQNRKQPMAIKSPSGRVHELVKSDPHFPYGTWKGSIKIKEPGVWSALVIADSGIGWSVFAEWLCV
B5: YBL039C (protein, UniProt P28274 1-579, looked up)
CTP synthase 1: MKYVVVSGGVISGIGKGVLASSTGMLMKTLGLKVTSIKIDPYMNIDAGTMSPLEHGECFVLDDGGETDLDLGNYERYLGVTLTKDHNITTGKIYSHVIAKERKGDYLGKTVQIVPHLTNAIQDWIERVAKIPVDDTGMEPDVCIIELGGTVGDIESAPFVEALRQFQFKVGKENFALIHVSLVPVIHGEQKTKPTQAAIKGLRSLGLVPDMIACRCSETLDKPTIDKIAMFCHVGPEQVVNVHDVNSTYHVPLLLLEQKMIDYLHARLKLDEISLTEEEKQRGLELLSKWKATTGNFDESMETVKIALVGKYTNLKDSYLSVIKALEHSSMKCRRKLDIKWVEATDLEPEAQESNKTKFHEAWNMVSTADGILIPGGFGVRGTEGMVLAARWARENHIPFLGVCLGLQIATIEFTRSVLGRKDSHSAEFYPDIDEKNHVVVFMPEIDKETMGGSMRLGLRPTFFQNETEWSQIKKLYGDVSEVHERHRHRYEINPKMVDELENNGLIFVGKDDTGKRCEILELKNHPYYIATQYHPEYTSKVLDPSKPFLGLVAASAGILQDVIEGKYDLEAGENKFNF
B6: LSB1 (protein, UniProt P53281 2-241, looked up)
LAS seventeen-binding protein …: SASLVNRSLKNIRNELEFLKESNVISGDIFELINSKLPEKWDGNQRSPQNADTEEYVEALYDFEAQQDGDLSLKTGDKIQVLEKISPDWYRGKSNNKIGIFPANYVKPAFTRSASPKSAEAASSSTVSRPSVPPPSYEPAASQYPSQQVSAPYAPPAGYMQAPPPQQQQAPLPYPPPFTNYYQQPQQQYAPPSQQAPVEAQPQQSSGASSAFKSFGSKLGNAAIFGAGSAIGSDIVNSIF
B7: HOF1 (protein, UniProt Q05080 1-669, looked up)
Cytokinesis protein 2: MSYSYEACFWDPNDNGVNILLGHISQGIRSCDSMILFFKQRSELEKDYARRLGAITGKLDKDIGTNMDYGKLNETFNVVLSVEKARAQSHSKQSEILFRQIYTDTKAFAANLQARYTTLSGKIERLRMDKFNKKKGCEVLQKKLQDAQIRFRDLQLNENNMIGAKRVEHNKRELLKWESNSQEYKVQLDVLKQEYKASQKFWIHEWAQLSCELQEMENARISFLQSKLQQFATSSMETYILEQTKMDMLTNHLNSFTAADEISTFSKENGTGRLKHKTSKGDMNSSANWAQMSSISTTSKKTESYMDNIRKLSSQLKETENKRKLASIDKYEKPLPSPEVTMATQFRNSTPVIRNETKVVANPTLSLRSSPVQLQSNVDDSVLRQKPDKPRPIVGEEQLKPDEDSKNPDEKGLMVHKRNQSLSSPSESSSSNPTDFSHIKKRQSMESMTTSVSSMANSIDDSQRFAKSWNSSNRKRKSMSHLQVPSSASSRSDDGGRTPNSAHNLNEDDYNTRRDTSTSTILFKPPVAVRGTSRGHTHRQSMIMQDSSNPIEDALYEMERIQSSSKPGTKTGNIMDERGVVRDRGITVTLPIVTSEGFPVIEYAKAMYPLIGNEAPGLANFHKGDYLLITEIVNKDWYKGEVYDNDRIDRNHRIGLIPYNFIQLLHQGL
B8: BBC1: yeast SH3-containing protein; SH3-deleted or knockout strain (protein, UniProt P47068 1-1157, looked up)
Myosin tail …: MSEPEVPFKVVAQFPYKSDYEDDLNFEKDQEIIVTSVEDAEWYFGEYQDSNGDVIEGIFPKSFVAVQGSEVGKEAESSPNTGSTEQRTIQPEVEQKDLPEPISPETKKETLSGPVPVPAATVPVPAATVPVPAATAVSAQVQHDSSSGNGERKVPMDSPKLKARLSMFNQDITEQVPLPKSTHLDLENIPVKKTIVADAPKYYVPPGIPTNDTSNLERKKSLKENEKKIVPEPINRAQVESGRIETENDQLKKDLPQMSLKERIALLQEQQRLQAAREEELLRKKAKLEQEHERSAVNKNEPYTETEEAEENEKTEPKPEFTPETEHNEEPQMELLAHKEITKTSREADEGTNDIEKEQFLDEYTKENQKVEESQADEARGENVAEESEIGYGHEDREGDNDEEKEEEDSEENRRAALRERMAKLSGASRFGAPVGFNPFGMASGVGNKPSEEPKKKQHKEKEEEEPEQLQELPRAIPVMPFVDPSSNPFFRKSNLSEKNQPTETKTLDPHATTEHEQKQEHGTHAYHNLAAVDNAHPEYSDHDSDEDTDDHEFEDANDGLRKHSMVEQAFQIGNNESENVNSGEKIYPQEPPISHRTAEVSHDIENSSQNTTGNVLPVSSPQTRVARNGSINSLTKSISGENRRKSINEYHDTVSTNSSALTETAQDISMAAPAAPVLSKVSHPEDKVPPHPVPSAPSAPPVPSAPSVPSAPPVPPAPPALSAPSVPPVPPVPPVSSAPPALSAPSIPPVPPTPPAPPAPPAPLALPKHNEVEEHVKSSAPLPPVSEEYHPMPNTAPPLPRAPPVPPATFEFDSEPTATHSHTAPSPPPHQNVTASTPSMMSTQQRVPTSVLSGAEKESRTLPPHVPSLTNRPVDSFHESDTTPKVASIRRSTTHDVGEISNNVKIEFNAQERWWINKSAPPAISNLKLNFLMEIDDHFISKRLHQKWVVRDFYFLFENYSQLRFSLTFNSTSPEKTVTTLQERFPSPVETQSARILDEYAQRFNAKVVEKSHSLINSHIGAKNFVSQIVSEFKDEVIQPIGARTFGATILSYKPEEGIEQLMKSLQKIKPGDILVIRKAKFEAHKKIGKNEIINVGMDSAAPYSSVVTDYDFTKNKFRVIENHEGKIIQNSYKLSHMKSGKLKVFRIVARGYVGW

Test system: 575 putative partners (preys) of 22 WT SH3-containing proteins
Experiment: DHFR-PCA on solid medium, WT and SH3-deleted baits (Fig. 1B)
Format: cell-based, Saccharomyces cerevisiae
Design: key to Score: 0: SH3-independent; 1: SH3-dependent PPIs; 2: SH3-inhibited PPIs
Conditions: for SH3-dependent PPIs: number of PPIs, SH3 domain in its own protein, DHFR-PCA, Fig2D,S2F; for medrep (log2 median colony size normalized to plate background, PCA score): label = prey
Summary of the method: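 In S. cerevisiae, 22 SH3-containing baits fused genomically to DHFR F[1,2], either WT or with each SH3 replaced via CRISPR by a poly-Gly/Ser linker, screened against 575 DHFR F[3] preys plus 40 negative controls in 1536 arrays, preys duplicated at randomized positions.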

Molecule | SH3-dependent PPIs | other results
B1 | 19 | –
B2 | 1 | –
B3 | 0 | –
B4 | 0 | –
B5 | – | medrep (log2 median colony size normalized to plate background, PCA score) (bait SLA1-2, DHFR-PCA, Replicates 4 (2 for YCR009C, YDR388W)): 2.2515; Score (bait SLA1-2, label = prey): 1; Ratio (SH3-deleted/WT medrep) (bait SLA1-2, label = prey, only significant differences shown, PPIs completely lost have a ratio of 0.1, gained PPIs 2.5): 0.1; medrep (log2 median colony size normalized to plate background, PCA score) (bait SLA1-3, DHFR-PCA, Replicates 4 (2 for YCR009C, YDR388W, YIL033C)): 2.2515; Score (bait SLA1-3, label = prey): 0
B6 | 8 | –
B7 | 4 | –
B8 | 19 | –
